According to patent US20090226960A1:

What was measured:
[1] = target: CD28 on Jurkat T cells (UniProt P10747); experiment: cell-based or functional assay
[2] = target: LFA-1 on Jurkat T cells (UniProt P20701); experiment: cell-based or functional assay
LFA-1 on Jurkat T cells, sequence (P20701 26-1170 limits assumed, chain 1 of 2): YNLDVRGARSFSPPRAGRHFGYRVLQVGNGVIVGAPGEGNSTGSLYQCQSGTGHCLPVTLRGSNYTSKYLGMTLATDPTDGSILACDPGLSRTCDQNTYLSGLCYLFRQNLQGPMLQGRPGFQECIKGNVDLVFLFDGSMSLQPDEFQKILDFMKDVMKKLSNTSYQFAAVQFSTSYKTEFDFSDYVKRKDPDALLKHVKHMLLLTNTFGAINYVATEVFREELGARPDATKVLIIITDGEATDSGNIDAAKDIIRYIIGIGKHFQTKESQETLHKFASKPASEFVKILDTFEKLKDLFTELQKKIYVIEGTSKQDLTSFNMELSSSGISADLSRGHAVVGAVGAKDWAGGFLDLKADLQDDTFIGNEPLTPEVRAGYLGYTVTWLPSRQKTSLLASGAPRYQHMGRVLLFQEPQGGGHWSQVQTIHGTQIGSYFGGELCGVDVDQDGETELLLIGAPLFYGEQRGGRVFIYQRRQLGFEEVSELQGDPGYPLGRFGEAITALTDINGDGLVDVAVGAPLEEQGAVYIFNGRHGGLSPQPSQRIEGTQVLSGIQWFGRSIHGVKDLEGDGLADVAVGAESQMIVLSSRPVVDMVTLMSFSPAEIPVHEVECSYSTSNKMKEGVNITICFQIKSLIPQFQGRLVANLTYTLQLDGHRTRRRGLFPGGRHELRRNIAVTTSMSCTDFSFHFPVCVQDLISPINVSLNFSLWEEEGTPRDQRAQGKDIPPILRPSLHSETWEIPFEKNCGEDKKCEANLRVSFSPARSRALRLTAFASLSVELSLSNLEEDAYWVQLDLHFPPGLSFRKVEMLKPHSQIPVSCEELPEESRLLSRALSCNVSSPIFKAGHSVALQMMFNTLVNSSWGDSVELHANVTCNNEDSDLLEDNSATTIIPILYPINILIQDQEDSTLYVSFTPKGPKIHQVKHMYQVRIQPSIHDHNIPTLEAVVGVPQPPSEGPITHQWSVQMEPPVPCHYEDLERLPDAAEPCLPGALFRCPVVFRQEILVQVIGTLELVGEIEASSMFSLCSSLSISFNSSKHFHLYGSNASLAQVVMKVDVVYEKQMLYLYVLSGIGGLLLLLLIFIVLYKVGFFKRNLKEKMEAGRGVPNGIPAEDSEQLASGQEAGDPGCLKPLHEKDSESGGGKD
LFA-1 on Jurkat T cells, sequence (P05107 23-769 limits assumed, chain 2 of 2, further chain): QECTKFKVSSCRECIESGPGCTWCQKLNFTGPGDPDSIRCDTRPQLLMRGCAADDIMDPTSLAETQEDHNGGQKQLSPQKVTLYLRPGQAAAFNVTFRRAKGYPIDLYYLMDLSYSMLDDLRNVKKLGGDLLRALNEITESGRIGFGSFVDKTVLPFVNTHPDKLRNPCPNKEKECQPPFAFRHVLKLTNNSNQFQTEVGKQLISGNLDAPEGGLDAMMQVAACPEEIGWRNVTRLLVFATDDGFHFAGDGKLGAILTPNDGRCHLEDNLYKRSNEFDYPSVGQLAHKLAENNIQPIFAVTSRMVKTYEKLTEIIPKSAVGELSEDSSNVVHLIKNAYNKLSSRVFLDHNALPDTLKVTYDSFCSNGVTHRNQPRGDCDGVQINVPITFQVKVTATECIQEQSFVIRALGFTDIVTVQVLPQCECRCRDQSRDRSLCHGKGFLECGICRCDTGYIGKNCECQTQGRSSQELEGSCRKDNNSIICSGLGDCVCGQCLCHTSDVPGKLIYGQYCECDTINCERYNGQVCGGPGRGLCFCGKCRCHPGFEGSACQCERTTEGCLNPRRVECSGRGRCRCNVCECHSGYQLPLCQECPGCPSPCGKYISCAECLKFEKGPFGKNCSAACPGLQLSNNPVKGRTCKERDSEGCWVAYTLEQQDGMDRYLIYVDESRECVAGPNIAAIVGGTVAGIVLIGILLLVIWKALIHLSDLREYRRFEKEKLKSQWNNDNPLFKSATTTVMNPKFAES

Substance | Jurkat T cell adhesion to MembraneChip (fold against the control) [1] | Jurkat T cell adhesion to MembraneChip (fold against the control) [2]
GPI-tethered extracellular domain of human B7-1 expressed from pYBS101 (from UniProt P33681 35-242) (ligand) | 4 | –
GPI-tethered extracellular domain of human ICAM-1 expressed from pYBS101 (from UniProt P05362 28-480) (ligand) | – | 3
